The values below come from the RNAGym collection of RNA variant scans (doi:10.7554/elife.80360).

First the molecules themselves.
B1: Hairpin Ribozyme (parent)
chain: GUCCUCUUUCACGUGCGCGUGAAAGAGAGAAGUGAACCAGAGAAACACACGUUGUGGUAUAUUACCUGGUA

In this data set the parent is B1. In words: self-cleavage, relative activity (ratio to wild type); higher = more cleavage; co-transcriptional.
Consider C6A C18U, for which the self-cleavage came to 0.708.

Regarding U9C A35C, the self-cleavage came to 0.602.

As for G34A C37G, the self-cleavage was found to be 0.519.

In the case of A45U U58G, the self-cleavage stood at 0.123.

Regarding G13A G57A, the self-cleavage is 0.175.

With U8A G15C, the self-cleavage is 0.954.

Consider G54U A64C, for which the self-cleavage amounted to 0.128.

Take U14G C46U: the self-cleavage was 0.21.

For the variant A11G U33G, the self-cleavage was 0.131.

As to C6U A23U, the self-cleavage amounted to 0.615.

Take G27C C48U: the self-cleavage was 0.231.

In the case of U8C G25U, the self-cleavage is 0.32.

G13U A39C: the self-cleavage came out at 0.498.

As to A11G C48U, the self-cleavage amounted to 0.144.

For G17A C46U, the self-cleavage stood at 0.143.

Turning to A24G A28C, the self-cleavage was 0.338.

In the case of C12G G29A, the self-cleavage came out at 0.138.

Regarding A45C U63A, the self-cleavage amounted to 0.0272.

For the variant U2G C46G, the self-cleavage turned out to be 0.12.

On to A26G A44C, for which the self-cleavage stood at 0.0629.

As for G54A G57A, the self-cleavage was determined as 0.182.

On to C6U A28U, for which the self-cleavage came to 0.495.

As to G15U G21C, the self-cleavage is 0.829.

Take U7A A61G: the self-cleavage was determined as 0.186.

For G17U A47U, the self-cleavage turned out to be 0.101.

With C6G A28C, the self-cleavage is 0.145.

In the case of A44G U62G, the self-cleavage is 0.207.

Regarding A44U U67C, the self-cleavage came out at 0.099.

On to G29C G56U, for which the self-cleavage was 0.0807.

Turning to A36G C38A, the self-cleavage came out at 0.146.

Regarding G34A U60A, the self-cleavage came out at 1.13.

On to C10U G57U, for which the self-cleavage is 0.239.

In the case of G17U U67C, the self-cleavage amounted to 0.184.

Consider C38A U62A, for which the self-cleavage is 0.218.

Regarding A23G U67G, the self-cleavage stood at 0.18.

Turning to U9A G17U, the self-cleavage stood at 0.65.

On to A28C G34U, for which the self-cleavage was found to be 1.23.

On to U8A A31C, for which the self-cleavage was determined as 0.0591.

A31G A41C: the self-cleavage came to 1.2.

As for C12U G15C, the self-cleavage was found to be 0.897.

For C37A U67A, the self-cleavage was 0.197.

Regarding A28C C66A, the self-cleavage came to 0.0844.

As for U5C A45U, the self-cleavage amounted to 0.133.

As for G54A U60G, the self-cleavage was found to be 0.204.

With U8C G42A, the self-cleavage is 0.177.

Turning to G32A U33G, the self-cleavage stood at 0.137.

Consider A11U U33C, for which the self-cleavage was 0.152.

For the variant G15A C46A, the self-cleavage was 0.132.

Turning to G15A G29U, the self-cleavage came out at 0.0945.

U5A C65U: the self-cleavage amounted to 0.222.

U33A A36G: the self-cleavage turned out to be 0.202.

As to A11G A22G, the self-cleavage is 0.774.

Consider U8C A41U, for which the self-cleavage stood at 1.12.

Turning to A30G G32A, the self-cleavage worked out at 0.137.

For G25U G51C, the self-cleavage came out at 0.589.

In the case of A22C A30U, the self-cleavage was found to be 0.0473.

In the case of U20G A30C, the self-cleavage was determined as 0.194.

For the variant U63C, the self-cleavage was found to be 0.186.

Consider G1U C66A, for which the self-cleavage is 0.242.

Turning to A36C A49G, the self-cleavage turned out to be 0.28.

Take A36C U70G: the self-cleavage came out at 0.671.

As for A36U U60A, the self-cleavage was determined as 0.487.

For the variant A36G U60G, the self-cleavage is 0.62.

A41G U53C: the self-cleavage stood at 0.819.

Consider C6U A35C, for which the self-cleavage was determined as 0.896.

With G29C C38G, the self-cleavage worked out at 0.122.

Regarding G13C G27U, the self-cleavage amounted to 0.19.

Consider G27A C50G, for which the self-cleavage was 0.131.

On to C18U G40C, for which the self-cleavage was 0.0598.

As for A47U U62C, the self-cleavage was determined as 0.264.

For the variant U20A G54A, the self-cleavage stood at 0.546.

A23G A35C: the self-cleavage was 1.

Turning to U53A A59C, the self-cleavage was found to be 0.0694.

As to A31C A64G, the self-cleavage turned out to be 0.0732.

On to C10U G25U, for which the self-cleavage was 0.509.

For C50U C66G, the self-cleavage was found to be 0.166.

Consider A11G A36U, for which the self-cleavage is 0.512.

As to C3U C12G, the self-cleavage worked out at 0.471.

Regarding G42A U70G, the self-cleavage is 0.161.

In the case of G54U U60C, the self-cleavage worked out at 0.834.

Take G1U A26G: the self-cleavage was 0.314.

In the case of G21U A64C, the self-cleavage turned out to be 0.149.

On to C10U A43U, for which the self-cleavage amounted to 0.0631.

Take C46U U63A: the self-cleavage is 0.0217.

With C4A U53C, the self-cleavage worked out at 0.206.

As for A11U U55C, the self-cleavage was 0.118.

As for G1C G27U, the self-cleavage was found to be 0.142.

For C12G A71G, the self-cleavage amounted to 0.803.

For the variant A41C U55A, the self-cleavage amounted to 0.405.

As to C50A U58A, the self-cleavage worked out at 0.183.

Regarding U7C G15C, the self-cleavage was found to be 0.948.

Take C6A A22C: the self-cleavage is 0.541.

On to G19C A45G, for which the self-cleavage is 0.277.

For U20A A30C, the self-cleavage amounted to 0.253.

As to U52C U53G, the self-cleavage came to 1.

For C6U G25C, the self-cleavage was 0.773.

C18U A39G: the self-cleavage stood at 0.375.

Turning to G42A G69C, the self-cleavage amounted to 0.118.

Consider G1A C10U, for which the self-cleavage worked out at 0.235.

A36G A71C: the self-cleavage is 1.23.

With U2G A35G, the self-cleavage was 0.213.

For the variant U2G A35C, the self-cleavage amounted to 0.477.

Consider U33A U55G, for which the self-cleavage was found to be 0.0798.

U2G G68C: the self-cleavage is 0.135.

U5C C48G: the self-cleavage stood at 0.0712.

Turning to U5C G29C, the self-cleavage is 0.205.

Turning to C48G G54U, the self-cleavage turned out to be 0.211.

On to U7A C10U, for which the self-cleavage was found to be 0.799.

As for U20A C66A, the self-cleavage came to 0.231.

With A11U A30U, the self-cleavage was determined as 0.133.

With U2A A22C, the self-cleavage was 0.341.

As for U9A U20G, the self-cleavage stood at 0.583.

With A11C A49C, the self-cleavage was 0.192.

With A23C A36U, the self-cleavage amounted to 0.475.

For G1C C50G, the self-cleavage amounted to 0.171.

Turning to U8C A59C, the self-cleavage was 0.183.

For the variant G32C C48A, the self-cleavage is 0.112.

Consider G32C A35G, for which the self-cleavage came out at 0.146.

In the case of U9C U14A, the self-cleavage was 0.781.

As to C38G U67C, the self-cleavage is 0.119.

Take G17U U60G: the self-cleavage was found to be 0.343.

On to U7C G19U, for which the self-cleavage was 0.68.

As to U33A G40U, the self-cleavage turned out to be 0.126.

In the case of A35G A36G, the self-cleavage was 0.749.

As for C18U G69C, the self-cleavage turned out to be 0.334.

Take G1A G21U: the self-cleavage amounted to 0.127.

C4U G32A: the self-cleavage came to 0.196.

With A49G U70C, the self-cleavage came out at 0.262.

On to U20A U62A, for which the self-cleavage worked out at 0.239.

Turning to A24G A59G, the self-cleavage turned out to be 0.272.

With C10U U62G, the self-cleavage was 0.0799.

For the variant G17A A43U, the self-cleavage was determined as 0.105.

Turning to C38A C48U, the self-cleavage amounted to 0.135.

A41U G51C: the self-cleavage turned out to be 1.27.

For U14G C16G, the self-cleavage was determined as 0.548.

As to G1C A26U, the self-cleavage was 0.18.

Turning to C6G U58A, the self-cleavage is 0.29.

In the case of C12A A39C, the self-cleavage is 0.397.

Consider C18A G34U, for which the self-cleavage worked out at 1.46.

In the case of U20G A45U, the self-cleavage stood at 0.117.

As for U8A G17C, the self-cleavage is 0.63.

As for G29A U53C, the self-cleavage turned out to be 0.234.

In the case of A45G, the self-cleavage is 0.177.

Take U8C G21A: the self-cleavage turned out to be 0.264.

For the variant U58C C66A, the self-cleavage was determined as 0.201.

Take G57A U67A: the self-cleavage came to 0.2.

As for U20G G56C, the self-cleavage was determined as 0.312.

Regarding G1U A23U, the self-cleavage was found to be 0.11.

Regarding U2C A45C, the self-cleavage came to 0.0982.

Take C6A A24C: the self-cleavage was 0.445.

In the case of A43U U67C, the self-cleavage is 0.109.

Consider G17U G19U, for which the self-cleavage was found to be 0.581.

As to G15C A45U, the self-cleavage came to 0.191.

Regarding A59G U63A, the self-cleavage was found to be 0.262.

Take U5A C10A: the self-cleavage turned out to be 0.188.

For G17A C65A, the self-cleavage is 0.86.

In the case of U53G G54U, the self-cleavage stood at 0.49.

For G40U A49G, the self-cleavage is 0.175.

Take C6G G25C: the self-cleavage turned out to be 0.744.

Regarding C46G G51U, the self-cleavage was 0.164.

As to A23U A44C, the self-cleavage was found to be 0.133.

In the case of G29A U63G, the self-cleavage stood at 0.116.

As to A41U A71G, the self-cleavage was 1.14.

U14C G57A: the self-cleavage was determined as 0.215.

A26G G27U: the self-cleavage was found to be 0.121.

As for A26C U60C, the self-cleavage was found to be 0.602.

As for G21A A28U, the self-cleavage was 0.719.
